These results are taken from the supplement of paper PMC10567573.

First the molecules themselves.
B1: TCAP (parent)
chain: YQRVLPLPIFTPAKMGATKEERED
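Note: lentivirally expressed fusions sorted by FACS into six bins by GFP to DsRed ratio, PSI derived from sequencing read proportions per bin multiplied by bin number.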

Variants of B1 are the subject of the data set. Put plainly: protein stability index of a GFP-peptide fusion (GPS, HEK-293T) (PSI 1-6); higher = more stable. The settings on record: c terminus: a fixed tail appended.
Consider YQRVLPLPIFTPAKMGATPEERED, for which the protein stability index amounted to 2.21.
In the case of YQRVLPLPIFTPAKMGATDEERED it was 2.03; in that of YQRVLPLPIFTPAKMGATVEERED, 1.63.
For YQRVLPLPIFTPAKMGATEEERED, the protein stability index came to 2.09.
In the case of YQRVLPLPIFTPAKMGATCEERED it was 1.78; in that of YQRVLPLPIFTPAKMGATWEERED, 1.81.
Turning to YQRVLPLPIFTPAKMGATTEERED, the protein stability index was 2.12.
As for YQRVLPLPIFTPAKMGATLEERED, the protein stability index is 1.8.
On to YQRVLPLPIFTPAKMGATAEERED, for which the protein stability index is 2.02.
As for YQRVLPLPIFTPAKMGATREERED, the protein stability index amounted to 2.02.
On to YQRVLPLPIFTPAKMGATSEERED, for which the protein stability index turned out to be 2.08.
YQRVLPLPIFTPAKMGATMEERED: the protein stability index is 2.5.
For the variant YQRVLPLPIFTPAKMGATQEERED, the protein stability index worked out at 1.91.
Turning to YQRVLPLPIFTPAKMGATNEERED, the protein stability index turned out to be 2.1.
For the variant YQRVLPLPIFTPAKMGATHEERED, the protein stability index came to 1.8.
To YQRVLPLPIFTPAKMGATGEERED belongs 2.42.
For the variant YQRVLPLPIFTPAKMGATIEERED, the protein stability index stood at 2.06.
For the variant YQRVLPLPIFTPAKMGATYEERED, the protein stability index stood at 2.01.
In the case of YQRVLPLPIFTPAKMGATFEERED it was 1.93; in that of YQRVLPLPIFTPAKMGAYKEERED, 1.7.
To YQRVLPLPIFTPAKMGASKEERED belongs 1.81; to YQRVLPLPIFTPAKMGAMKEERED, 1.52.
To YQRVLPLPIFTPAKMGAFKEERED belongs 1.76; to YQRVLPLPIFTPAKMGANKEERED, 2.06; to YQRVLPLPIFTPAKMGARKEERED, 2.4.
Consider YQRVLPLPIFTPAKMGAAKEERED, for which the protein stability index came to 1.79.
Take YQRVLPLPIFTPAKMGACKEERED: the protein stability index is 2.12.
To YQRVLPLPIFTPAKMGADKEERED belongs 2.25; to YQRVLPLPIFTPAKMGAPKEERED, 1.91.
For YQRVLPLPIFTPAKMGAEKEERED, the protein stability index turned out to be 3.02.
Consider YQRVLPLPIFTPAKMGAHKEERED, for which the protein stability index turned out to be 1.95.
For YQRVLPLPIFTPAKMGAQKEERED, the protein stability index was found to be 2.39.
As to YQRVLPLPIFTPAKMGAVKEERED, the protein stability index was found to be 2.38.
YQRVLPLPIFTPAKMGAKKEERED: the protein stability index was 2.25.
As to YQRVLPLPIFTPAKMGAIKEERED, the protein stability index was 1.81.
On to YQRVLPLPIFTPAKMGALKEERED, for which the protein stability index turned out to be 2.56.
For the variant YQRVLPLPIFTPAKMGAGKEERED, the protein stability index is 1.96.
YQRVLPLPIFTPAKCGATKEERED: the protein stability index was 2.12.
Take YQRVLPLPIFTPAKLGATKEERED: the protein stability index worked out at 2.42.
With YQRVLPLPIFTPAKDGATKEERED, the protein stability index amounted to 2.23.
In the case of YQRVLPLPIFTPAKSGATKEERED it was 2.92.
With YQRVLPLPIFTPAKNGATKEERED, the protein stability index was 2.38.
Turning to YQRVLPLPIFTPAKVGATKEERED, the protein stability index stood at 2.39.
Consider YQRVLPLPIFTPAKYGATKEERED, for which the protein stability index turned out to be 2.21.
In the case of YQRVLPLPIFTPAKPGATKEERED it was 2.69; in that of YQRVLPLPIFTPAKTGATKEERED, 2.05.
YQRVLPLPIFTPAKIGATKEERED: the protein stability index came out at 2.1.
As for YQRVLPLPIFTPAKKGATKEERED, the protein stability index amounted to 2.38.
Turning to YQRVLPLPIFTPAKAGATKEERED, the protein stability index stood at 2.38.
Take YQRVLPLPIFTPAKEGATKEERED: the protein stability index came to 2.64.
In the case of YQRVLPLPIFTPAKFGATKEERED, the protein stability index turned out to be 2.14.
In the case of YQRVLPLPIFTPAKQGATKEERED it was 2.26; in that of YQRVLPLPIFTPAKRGATKEERED, 2.21; in that of YQRVLPLPIFTPAKGGATKEERED, 2.31.
As for YQRVLPLPIFTPAKHGATKEERED, the protein stability index came out at 2.57.
Take YQRVLPLPIFTPAKWGATKEERED: the protein stability index was 1.72.
To YQRVLPLPIFTPAKMGATKEERKD belongs 1.87.
For the variant YQRVLPLPIFTPAKMGATKEERCD, the protein stability index was 2.19.
On to YQRVLPLPIFTPAKMGATKEERDD, for which the protein stability index came out at 2.04.
For the variant YQRVLPLPIFTPAKMGATKEERAD, the protein stability index worked out at 2.02.
In the case of YQRVLPLPIFTPAKMGATKEERID, the protein stability index worked out at 2.3.
In the case of YQRVLPLPIFTPAKMGATKEERHD it was 2.72; in that of YQRVLPLPIFTPAKMGATKEERGD, 2; in that of YQRVLPLPIFTPAKMGATKEERFD, 1.64.
In the case of YQRVLPLPIFTPAKMGCTKEERED, the protein stability index came out at 2.24.
Consider YQRVLPLPIFTPAKMGRTKEERED, for which the protein stability index was 2.05.
YQRVLPLPIFTPAKMGLTKEERED: the protein stability index was 1.67.
Turning to YQRVLPLPIFTPAKMGPTKEERED, the protein stability index was determined as 1.97.
As for YQRVLPLPIFTPAKMGVTKEERED, the protein stability index was 1.76.
Take YQRVLPLPIFTPAKMGFTKEERED: the protein stability index stood at 1.74.
In the case of YQRVLPLPIFTPAKMGSTKEERED it was 2.02; in that of YQRVLPLPIFTPAKMGYTKEERED, 1.89.
Turning to YQRVLPLPIFTPAKMGITKEERED, the protein stability index is 1.84.
Regarding YQRVLPLPIFTPAKMGGTKEERED, the protein stability index was found to be 1.72.
As to YQRVLPLPIFTPAKMGETKEERED, the protein stability index was found to be 2.07.
In the case of YQRVLPLPIFTPAKMGTTKEERED it was 1.78.
To YQRVLPLPIFTPAKMGWTKEERED belongs 2.11.
Consider YQRVLPLPIFTPAKMGKTKEERED, for which the protein stability index was 2.21.
For the variant YQRVLPLPIFTPAKMGHTKEERED, the protein stability index turned out to be 2.06.
In the case of YQRVLPLPIFTPAKMGMTKEERED it was 2.38; in that of YQRVLPLPIFTPAKMGQTKEERED, 1.86; in that of YQRVLPLPIFTPAKMGNTKEERED, 2.08.
In the case of YQRVLPLPIFTPAKMGDTKEERED, the protein stability index worked out at 2.1.
For the variant YQRVLPLPIFTPAKMGATKEECED, the protein stability index was found to be 2.04.
Consider YQRVLPLPIFTPAKMGATKEELED, for which the protein stability index worked out at 1.79.
To YQRVLPLPIFTPAKMGATKEEWED belongs 1.71.
Take YQRVLPLPIFTPAKMGATKEEYED: the protein stability index was 1.63.
Turning to YQRVLPLPIFTPAKMGATKEEMED, the protein stability index was determined as 1.9.
Turning to YQRVLPLPIFTPAKMGATKEEQED, the protein stability index was determined as 1.67.
As for YQRVLPLPIFTPAKMGATKEENED, the protein stability index came to 2.51.
On to YQRVLPLPIFTPAKMGATKEESED, for which the protein stability index is 1.76.
On to YQRVLPLPIFTPAKMGATKEEEED, for which the protein stability index turned out to be 2.34.
On to YQRVLPLPIFTPAKMGATKEEDED, for which the protein stability index turned out to be 2.18.
As to YQRVLPLPIFTPAKMGATKEEVED, the protein stability index came out at 2.2.
